From article PMC9440762

Molecular target: P72509
Assay: SEC; C-PC dialysed overnight against 8 M urea and 30 mM β-mercaptoethanol, then loaded on Superdex 200 Increase 5/150 in urea-free 75 mM phosphate buffer pH 7.9; partial reassociation during the run

B1: C-phycocyanin αβ monomer (heterodimer of the α and β subunits) from Arthrospira platensis (protein)
chain 1: not shown
chain 2: MFDAFTKVVSQADTRGEMLSTAQIDALSQMVAESNKRLDAVNRITSNASTIVSNAARSLFAEQPQLIAPGGNAYTSRRMAACLRDMEIILRYVTYAVFAGDASVLEDRCLNGLRETYLALGTPGSSVAVGVGKMKEAALAIVNDPAGITPGDCSALASEIASYFDRACAAVS
- yield of the state with the initial hydrodynamic characteristics after renaturation from 8 M urea: 9.6%
